Legend:
[1] = test system: primary NHP hepatocytes; test: Hepatocyte toxicity in the P. cynomolgi anti-hypnozoite assay; format: cell-based, cynomolgus monkey; details: treatment days 4 to 7 after infection, readout day 8
Procedure: Cryopreserved primary cynomolgus monkey hepatocytes (lot STX) and hepatocyte culture medium (HCM) (InVitroGro CP medium) were obtained from BioIVT Inc. (Baltimore, MD, USA) and thawed following the manufacturer’s recommendations. Hepatocytes were seeded in 384-well collagen-coated plates and used for experiments within 2 days after seeding as previously described ([52]). Infectious sporozoites were obtained from Anopheles dirus mosquitoes infected with P. cynomolgi B strain and were used to infect the plated primary NHP hepatocytes 2 days after seeding ([52], [102]). HCM was changed the day after infection and every other day thereafter until drug treatment. […]
Imaging and image analysis of assay plates were completed using an Operetta CLS high-content imaging system and Harmony 4.9 software (PerkinElmer, Waltham, MA, USA). […] Using similar methodology described previously, parasites were counted with the TRITC channel and were identified by area, mean intensity, maximum intensity, and cell roundness parasites ([50], [99]–[102]). […] Percent inhibition (PI) and toxicity values were calculated relative to in-plate negative controls for parasites and hepatocytes, respectively, using GraphPad Prism software (GraphPad Software Inc., USA, Windows version 9.5.1) using the average of experimental and biological replicates. […]

[2] = Tissue pharmacokinetics of released TQ and its metabolites in liver, plasma and urine (LC-MS/MS); format: in vivo, BALB/c mice; details: mouse, in vivo

For p(GalNAc-MA-co-SVCTQ-MA) [pSVCTQ], the IC50 [1] was over 161 µM, the “AUC, liver” value ([2]; iv, 25 mg/kg) was 2550 μg/g liver*hour and the “AUC, plasma” value ([2]; iv, 25 mg/kg) was 15.53 μg/ml plasma* hour. The “Cmax, liver” value ([2]; iv, 25 mg/kg) was 57 μg/g liver, the “Cmax, plasma” value ([2]; iv, 25 mg/kg) was 0.20 μg/ml plasma and the “Liver:plasma AUC ratio” value ([2]; iv, 25 mg/kg) was 164. The “Tmax, liver” value ([2]; iv, 25 mg/kg) was 8 h, the “Tmax, plasma” value ([2]; iv, 25 mg/kg) was 2 h and the “OQTQ metabolite in urine” value ([2]; sc) was “high level”. The “Reduction of the Cmax of TQ in blood” value ([2]; sc) was “over 75%”, the “Reduction of the blood AUC over 14 days” value ([2]; sc) was “more than 50%” and the “AUC, liver” value ([2]; sc, 10 mg/kg) was 2422 μg/g liver*hour. For the same substance, the “AUC, plasma” value ([2]; sc, 10 mg/kg) was 9.617 μg/ml plasma* hour, the “CTQ metabolite in plasma” value ([2]; sc, 10 mg/kg) was “absence” and the “Cmax, liver” value ([2]; sc, 10 mg/kg) was 25 μg/g liver. For the same substance, the “Cmax, plasma” value ([2]; sc, 10 mg/kg) was 0.10 μg/ml plasma, the “Liver:plasma AUC ratio” value ([2]; sc, 10 mg/kg) was 252 and the “OQTQ metabolite in plasma” value ([2]; sc, 10 mg/kg) was “low”. The “Tmax, liver” value ([2]; sc, 10 mg/kg) was 8 h and the “Tmax, plasma” value ([2]; sc, 10 mg/kg) was 24 h.

From paper PMC11029812, “Liver-targeted polymeric prodrugs delivered subcutaneously improve tafenoquine therapeutic window for malaria radical cure” (Science Advances, 2024)
